Laboratory results published in patent publication US20210171610A1 (US Dept. of Health and Human Services, published 2021).

Tests used:
[1] = molecular target: T1, Soluble EBV gH/gL complex (poly-histidine tagged) (Epstein Barr Virus, UniProt P03231 19-679; P03212 24-137); test: Biolayer interferometry (Octet), His-tagged gH/gL on HIS1K biosensors, Fab dilution series (top curve labelled 5.00E-08), 300 s association, 900 s dissociation, 1:1 global fit
T1 construct: also called gH/gL Avi-His probe

[2] = molecular target: T2, Soluble EBV gH/gL/gp42 complex (HIS-tagged) (Epstein Barr Virus, UniProt P03231 19-679; P03212 24-137; P03205 33-223); test: Biolayer interferometry (Octet), His-tagged gH/gL/gp42 on HIS1K biosensors, Fab dilution series (top curve labelled 1.00E-07), 300 s association, 900 s dissociation, 1:1 global fit
[3] = molecular target: T2, Soluble EBV gH/gL/gp42 complex …; test: Biolayer interferometry (Octet), His-tagged gH/gL/gp42 on HIS1K biosensors, Fab dilution series (top curve labelled 5.00E-08), 300 s association, 900 s dissociation, 1:1 global fit
[4] = molecular target: T1, Soluble EBV gH/gL complex …; test: Biolayer interferometry (Octet), His-tagged gH/gL on HIS1K biosensors, Fab dilution series (top curve labelled 2.50E-08), 300 s association, 900 s dissociation, 1:1 global fit
[5] = molecular target: T1, Soluble EBV gH/gL complex …; test: as above; remark: listed apart in the source
[6] = molecular target: T1, Soluble EBV gH/gL complex …; test: Biolayer interferometry (Octet), His-tagged gH/gL on HIS1K biosensors, Fab dilution series (top curve labelled 2.50E-08), 1:1 global fit; same panel as FIG. 1C
[7] = molecular target: T2, Soluble EBV gH/gL/gp42 complex …; test: Biolayer interferometry (Octet), His-tagged gH/gL/gp42 on HIS1K biosensors, Fab dilution series (top curve labelled 2.50E-08), 300 s association, 900 s dissociation, 1:1 global fit
[8] = molecular target: T2, Soluble EBV gH/gL/gp42 complex …; test: BLI (Octet), His-captured soluble gH/gL/gp42 on HIS1K biosensor, Fab in solution, 1:1 global fit; target gH/gL/gp42 (gp42 present)
[9] = molecular target: T1, Soluble EBV gH/gL complex …; test: BLI (Octet), His-captured soluble gH/gL on HIS1K biosensor, Fab in solution, 1:1 global fit; target gH/gL without gp42
[10] = molecular target: T2, Soluble EBV gH/gL/gp42 complex …; test: Biolayer interferometry (Octet), His-tagged gH/gL/gp42 on HIS1K biosensors, Fab dilution series (top curve labelled 2.50E-08), 1:1 global fit; same panel as FIG. 1C
[11] = molecular target: T1, Soluble EBV gH/gL complex …; test: BLI kinetics, KD on gH/gL against KD on gH/gL/gp42

T2 sequence (P03231 19-679 limits assumed, chain 1 of 3): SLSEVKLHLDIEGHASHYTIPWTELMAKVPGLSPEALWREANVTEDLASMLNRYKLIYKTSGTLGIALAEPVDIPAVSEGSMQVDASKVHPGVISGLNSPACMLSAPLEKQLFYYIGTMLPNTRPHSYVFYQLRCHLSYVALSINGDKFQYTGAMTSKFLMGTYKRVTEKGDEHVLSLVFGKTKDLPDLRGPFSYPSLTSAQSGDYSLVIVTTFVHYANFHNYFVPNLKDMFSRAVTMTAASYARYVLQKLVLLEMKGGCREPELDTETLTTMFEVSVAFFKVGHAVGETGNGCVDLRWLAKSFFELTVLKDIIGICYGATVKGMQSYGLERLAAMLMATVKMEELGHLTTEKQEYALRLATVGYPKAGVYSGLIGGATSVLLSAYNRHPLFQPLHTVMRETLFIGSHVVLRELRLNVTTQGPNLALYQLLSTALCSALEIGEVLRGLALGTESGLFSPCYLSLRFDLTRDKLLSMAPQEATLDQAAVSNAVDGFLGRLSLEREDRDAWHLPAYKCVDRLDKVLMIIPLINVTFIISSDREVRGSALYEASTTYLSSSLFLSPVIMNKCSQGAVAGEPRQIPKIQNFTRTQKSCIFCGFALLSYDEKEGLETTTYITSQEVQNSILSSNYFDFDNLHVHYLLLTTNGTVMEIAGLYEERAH
T2 sequence (P03212 24-137 limits assumed, chain 2 of 3): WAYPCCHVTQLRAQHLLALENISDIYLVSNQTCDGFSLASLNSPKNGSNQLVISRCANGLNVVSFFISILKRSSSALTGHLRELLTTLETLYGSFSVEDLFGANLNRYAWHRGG
T2 sequence (P03205 33-223 limits assumed, chain 3 of 3): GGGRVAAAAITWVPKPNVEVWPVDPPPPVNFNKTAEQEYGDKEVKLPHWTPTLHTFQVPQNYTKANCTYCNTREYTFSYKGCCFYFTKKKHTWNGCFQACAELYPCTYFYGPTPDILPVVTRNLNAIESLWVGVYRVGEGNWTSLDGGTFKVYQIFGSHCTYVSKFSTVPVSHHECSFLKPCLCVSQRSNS
T1 sequence (P03231 19-679 limits assumed, chain 1 of 2): as the sequence (P03231 19-679 limits assumed, chain 1 of 3) above
T1 sequence (P03212 24-137 limits assumed, chain 2 of 2): as the sequence (P03212 24-137 limits assumed, chain 2 of 3) above

B1: Fab fragment of antibody 769C2 (Fab, V domains shown)
VH: EVQLVESGGGLVKPGGSLRLSCAASGFTFSTYAMDWVRQAPGKGLEWVSLISSRSSNIYYSDSVKGRFTISRDNAKNSLFLQMNSLRAEDTAVYYCAREAGGFHSHFDMWGQGTLVTVSS
VL: QSVLTQPASVSGSLGQSVTISCTGTSSDVGGYDYVSWYQQHPGKAPKLMIFEVNNRPSGVSTRFSGSKSGNTASLTISGLQAEDEADYYCNSYSTTTTWVFGGGTSLT
notes: also called 769C2 Fab
Kd [1]: 1.16 nM | koff [1]: 0.000292 s⁻¹ | kon [1]: 252000 M⁻¹ s⁻¹ | Kd [2]: 2.05 nM | koff [2]: 0.000425 s⁻¹ | kon [2]: 207000 M⁻¹ s⁻¹

B2: Fab fragment of antibody 770F7 (Fab, V domains shown)
VH: QVQFQQWGAGLLKPSETLSLTCGVYGGSLSGYYWSWIRQTPGKGLEWIGEINHTGTTNYNPSLKSRVTMSVDTSKNQFSLKMSSLTAADTALYYCAREGAPRWALKRPSNWFDPWGQGTLVTVSS
VL: EIVLTQSPVSLSLSPGERATLSCRASQSISSTYLAWYQQIPGQAPRLLIYGASSRAAGIPDRFSGGGSGTDFTLTISRLEPEDFAVYYCQQYGSSPRSFGQGTKLEIK
notes: also called 770F7 Fab
Kd [3]: 0.207 nM | koff [3]: 0.000128 s⁻¹ | kon [3]: 619000 M⁻¹ s⁻¹ | Kd [4]: 0.317 nM | koff [4]: 0.000165 s⁻¹ | kon [4]: 520000 M⁻¹ s⁻¹

B3: Fab fragment of 769B10 (Fab, V domains shown)
VH: EVQLVESGGGIVQPGGSLRVSCAASGFSLSDHYMDWVRQAPGRGLEWVGRSRNKENSFTTEFAASVRRRFTISRDDSNSLLHLQMNNLKSEDTAVYFCARVGYYDLWSGYSGNWYIDVWGRGTLVIVSS
VL: DIQMTQSPSSLSASLGDSVTITCRASQTMSNFLNWYQQKPGKAPKFLIYAASRLQSGVPSRFSGSGSGTQFTLTISNLQPEDFATYYCQQSFIFPYTFGGGTKVEVE
notes: also called 769B10 Fab; B10 Fab
koff [5]: 1.51e-05 s⁻¹ | kon [5]: 490000 M⁻¹ s⁻¹ | koff [6]: 1.51e-05 s⁻¹ | kon [6]: 490000 M⁻¹ s⁻¹ | koff [7]: 2.58e-05 s⁻¹ | kon [7]: 564000 M⁻¹ s⁻¹ | Kd [8]: 0.458 nM | Kd [9]: 0.0307 nM | koff [10]: 2.58e-05 s⁻¹ | kon [10]: 564000 M⁻¹ s⁻¹ | fold stronger affinity than for gH/gL/gp42 [11]: 10 fold
